Results reported in patent publication US20250326836A1 (SHIONOGI, published 2025).
Where two headings read alike, the source gives them in different places.

Key:
[1] = target: T1, human cannabinoid type 1 (CB1) receptor (human, UniProt P21554 1-472); test: cell-based or functional assay
[2] = target: T1, human cannabinoid type 1 (CB1) receptor; test: cell-based or functional assay; remark: listed apart in the source

T1 sequence (P21554 whole entry): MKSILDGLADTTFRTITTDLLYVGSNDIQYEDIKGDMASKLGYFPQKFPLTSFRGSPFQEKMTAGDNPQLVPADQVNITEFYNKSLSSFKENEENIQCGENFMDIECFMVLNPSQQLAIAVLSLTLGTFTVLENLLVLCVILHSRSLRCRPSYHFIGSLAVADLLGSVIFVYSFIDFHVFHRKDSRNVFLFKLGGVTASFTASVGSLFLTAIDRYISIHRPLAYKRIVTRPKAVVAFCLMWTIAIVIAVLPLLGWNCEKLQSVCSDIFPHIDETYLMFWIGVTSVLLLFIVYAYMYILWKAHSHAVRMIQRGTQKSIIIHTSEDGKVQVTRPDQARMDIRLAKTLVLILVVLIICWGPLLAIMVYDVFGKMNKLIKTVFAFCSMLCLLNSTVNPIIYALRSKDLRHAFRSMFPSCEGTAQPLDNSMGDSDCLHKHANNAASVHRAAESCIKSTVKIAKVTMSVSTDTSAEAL

Ca^2+ influx assay IC50 [1] | cAMP assay IC50 [1] | Ca^2+ influx assay IC50 [2] | cAMP assay IC50 [2] | Binder
0.55 nM | 8.5 nM | – | – | hIML1-2-OP1 (antibody, V domains shown) VH: QVQLVQSGAEVKKPGASVKVSCKASGYEFNYYWMNWVRQAPGQGLEWMGQIYPGDGDNRYNGKFKGRVTMTRDTSTSTVYMELSSLRSEDTAVYYCARTGSGRFAYWGQGTLVTVSS VL: DIQMTQSPSSLSASVGDRVTITCKASSSVSTRYLHWYQQKPGKAPKLLIYGTSNIASGVPSRFSGSGSGTDFTLTISSLQPEDVATYYCQQYTAFPLTFGQGTKVEIKR
2.03 nM | 5.9 nM | – | – | h2F8 (antibody, V domains shown) VH: QVQLVQSGAEVKKPGASVKVSCKASGYEFSYYWMNWVRQAPGQGLEWMGQIYPGDGDTNYNGKFKGRVTMTRDTSTSTVYMELSSLRSEDTAVYYCARSHGNYMIYWGQGTTVTVSS VL: EIVLTQSPGTLSLSPGERATLSCIASSSVSSSYLHWYQQKPGQAPRLLIHSTSNLASGIPERFSGSGSGPDFTLTISRLKPEDFAVYYCHQYHRSPRTFGQGTKVEIKR
– | – | 0.9 nM | 4.9 nM | m2F8 (antibody, V domains shown) VH: QVQLQQSGAELVKPGASVKISCKASGYEFSYYWMNWVKQRPGKGLEWIGQIYPGDGDTNYNGKFKGKATLAAGKSSSTAYMQLSSLTSEDSAVYFCARSHGNYMIYWGQGTSVTVSS VL: QIVLTQSPAIMSASLGERITLTCIASSSVSSSYLHWYQQKPGSSPKLWIYSTSNLASGVPTRFSGSGSGTSFSLTISTMEAEDAATYYCHQYHRSPRTFGGGTKLEIKR
– | – | 1.85 nM | 6.5 nM | m26C7 (antibody, V domains shown) VH: QVQLQQSGAELVKPGASVKISCKASGYEFSYYWMNWVKQRPGKGLEWIGQIYPGDGDTNYNGKFKGKATLTADKSSSTAYMQLSSLTSEDSAVYFCARSHGNYMAYWGQGTSVTVSS VL: QIVLTQSPAIMSASLGERITLTCTASSSVSSSYLHWYQQKPGSSPKLWIYSTSNLASGVPTRFSGSGSGTSFSLTISTMEAEDAATYYCHQYHRSPRTFGGGTKLEIKR
– | – | 1.22 nM | 5 nM | m24C4 (antibody, V domains shown) VH: QVQLQQSGAELVKPGASVKISCKASGYEFSYYWMNWVKQRPGKGLEWIGQIYPGDGDTNYNGKFKGKATLTADKSSSTAYMQLSSLTSEDSAVYFCARSHGNYMHYWGQGTSVTVSS VL: QIVLTQSPAIMSASLGERITLTCTASSSVSSSYLHWYQQKPGSSPKLWIYSTSNLASGVPTRFSGSGSGTSFSLTISTMEAEDAATYYCHQYHRSPRTFGGGTKLEIKR
– | – | 1.29 nM | 3.9 nM | m4D7 (antibody, V domains shown) VH: QVQLQQSGAELVKPGASVKISCKASGYEFSYYWMNWVKQRPGKGLEWIGQIYPGDGDTNYNGKFKGKATVTADKSSSTAYMQLSSLTSEDSAVYFCAKSHGNYMDYWGQGTSVTVSS VL: QIVLTQSPAIMSASLGERITLTCTASSSVSSSYLHWYQQKPGSSPKLWIYSTSNLASGVPTRFSGSGSGTSFSLTISTMEAEDAATYYCHQYHRSPRTFGGGTKLEIKR
2.62 nM | 28.6 nM | – | – | Nimacimab (BIRD ROCK BIO) (antibody, V domains shown) VH: QVQLVQSGAEVKKPGSSVKVSCKASGYEFSYYWMNWVRQAPGQGLEWMGQIYPGDGETKYAQKFQGRVTITADKSTSTAYMELSSLRSEDTAVYYCARSHGNYLPYWGQGTLVTVSS VL: EIVLTQSPATLSLSPGERATLSCRASQSVSSSYLHWYQQKPGQAPRLLIYSTSNLASGIPARFSGSGSGTDFTLTISRLEPEDFAVYYCHQYHRSPPTFGQGTKVEIK
– | – | 1.77 nM | 5.9 nM | mIML1-2 (antibody, V domains shown) VH: QVQLQQSGAELVKPGASVKIACKASGYEFNYYWMNWVKQRPGKGLEWIGQIYPGDGDNKYNGKFKGKATLTADKSSSTVYMQLNSLTSEDSAVYFCARTGSGRFAYWGQGTLVTVSA VL: QIVLTQSPAIMSASPGEKVTMTCRASSSVSSSYLHWYQQKSGASPKLWIYSTSNLASGVPARFSGSGSGTSYSLTITSVEAEDVATYYCQQYSGFPLTFGSGTKLEIKR
